The target in one assay is T1, human GRP78 (human, UniProt P11021 19-654).
T1 construct: also called BiP/HSPA5; antigen
The experiment in a line: Scatchard assay.

The target of another assay is T2, HSP70 (UniProt P0DMV8 2-641).
T2 construct: also called GRP78's closest paralogue
The experiment in a line: Western blot of MCF7 whole cell lysates.

The target of another assay is T3, mouse GRP78 (mouse, UniProt P20029 20-655).
T3 construct: Denatured protein on an immunoblot; also called GRP78 protein band in mouse embryo fibroblast (MEF) lysates
The experiment in a line: immunoblot of MEF lysates; band absent after deletion of Grp78.

For assay [1], the target named is T4, GRP78-His (human GRP78 amino acids 1-650, without KDEL motif, hexahistidine tag on C-terminus) (human, UniProt P11021 19-650).
T4 construct: also called GRP78-His polypeptide
The experiment in a line: competition ELISA on GRP78-His; dilution series of unlabelled antibody against a fixed concentration of biotinylated murine MAb159 [panel A]. In general terms: In an ELISA, binding on a coated surface is turned into a signal by an enzyme label.

Assay [2] addresses T5, Flag tagged GRP78 (without KDEL) (human, UniProt P11021 19-650, surface biotinylated with Sulfo-NHS-LC-Biotin).
T5 construct: also called surface GRP78 (overexpressed); not shown: Flag tag
The experiment in a line: surface biotinylation, avidin purification, anti-Flag immunoprecipitation, Western blot (293T cells). For orientation: A western blot detects proteins with antibodies after separation by electrophoresis.

B1: MAb159 (murine monoclonal antibody) (antibody, V domains shown)
VH: QAQLQQPGAELVKPGASVRLSCKASGYTFTSYWMHWVKQRPGQGLEWIGEINPGNGRTNYNEKFKRKATLTVDKSSSTAYMQLNSLTSEDSAVYYCATLYYYDGTYDYWGQGTTLTVSS
VL: DIVMTQSHKFMSTSVGDRVSVTCKASQNVGTDVAWYQQKPGQSPKALIYWASNRFTGVPDRFTGSGSGTDFTLTINNVQSEDLVDYFCQQYSSSPWTFGGGTKLEIK
notes: Whole murine monoclonal antibody from a hybridoma, purified on protein G; also called murine MAb159; parental murine antibody
B1: the Kd with human GRP78 is 1.7 nM. In addition, the binding result with HSP70 is on record as “no binding (tested: 1 µg/ml primary antibody)”; with mouse GRP78 it was “binds”.

B2: humanized MAb159 (antibody, V domains shown)
VH: QAQLVQSGAEVKKPGASVKVSCKASGYTFTSYWMHWVRQAPGQGLEWIGEINPGNGRTNYNEKFKRRVTITVDKSASTAYMELSSLRSEDTAVYYCATLYYYDGTYDYWGQGTTVTVSS
VL: DIVMTQSPSFLSASVGDRVTITCKASQNVGTDVAWYQQKPGKAPKALIYWASNRFTGVPDRFTGSGSGTDFTLTISSLQSEDVADYFCQQYSSSPWTFGGGTKVEIK
notes: It carries a human Fc (detected with a human Fc specific antibody)
Turning to B2, the binding result in assay [1] was “binds”.

B3: ERK1 (enzyme, UniProt P27361 2-379, looked up)
chain: AAAAAQGGGGGEPRRTEGVGPGVPGEVEMVKGQPFDVGPRYTQLQYIGEGAYGMVSSAYDHVRKTRVAIKKISPFEHQTYCQRTLREIQILLRFRHENVIGIRDILRASTLEAMRDVYIVQDLMETDLYKLLKSQQLSNDHICYFLYQILRGLKYIHSANVLHRDLKPSNLLINTTCDLKICDFGLARIADPEHDHTGFLTEYVATRWYRAPEIMLNSKGYTKSIDIWSVGCILAEMLSNRPIFPGKHYLDQLNHILGILGSPSQEDLNCIINMKARNYLQSLPSKTKVAWAKLFPKSDSKALDLLDRMLTFNPNKRITVEEALAHPYLEQYYDPTDEPVAEEPFTFAMELDDLPKERLKELIFQETARFQPGVLEAP
notes: Printed only as ERK1/2; also called ERK1/2; Erk1/2
In the case of B3, the binding result in assay [2] is recorded as “no binding”.

What is called Kd is the constant that tells how readily two partners part at equilibrium. Low values mean a tighter complex, high ones a looser complex.

These data come from patent publication US20160185853A1 (UNIVERSITY OF SOUTHERN CALIFORNIA, published 2016).
